According to US20070003546A1:

Assays:
[1] = target: extracellular region of human V158 FcγRIIIa fused with glutathione S-Transferase (GST) (human) (UniProt P08637); assay: AlphaScreen competition
[2] = target: FcγRIIIa on human PBMCs expressing heterozygous V158/F158 FcγRIIIa (human) (UniProt P08637); assay: cell-based or functional assay
[3] = target: His-tagged V158 FcγRIIIa (human) (UniProt P08637); assay: SPR, receptor immobilized
Chain of His-tagged V158 FcγRIIIa (human) (P08637 17-208 F176V limits assumed): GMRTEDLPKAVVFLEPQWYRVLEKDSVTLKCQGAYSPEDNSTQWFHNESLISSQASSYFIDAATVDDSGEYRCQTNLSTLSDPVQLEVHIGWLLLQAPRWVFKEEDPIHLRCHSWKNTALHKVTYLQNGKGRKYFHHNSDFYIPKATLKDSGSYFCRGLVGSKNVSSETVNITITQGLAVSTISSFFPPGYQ

Chain of extracellular region of human V158 FcγRIIIa fused with glutathione S-Transferase (GST) (human) (P08637 17-208 F176V): as the sequence (P08637 17-208 F176V limits assumed) above

FcγRIIIa Fold [1] | Substance | further results
1.87 fold | trastuzumab Y278T (antibody) | 
1.41 fold | trastuzumab K274T (antibody) | 
2.58 fold | trastuzumab T335R (antibody) | 
1.72 fold | trastuzumab V240I/V266I (antibody) | 
1.43 fold | trastuzumab K326I (antibody) | 
0.75 fold | trastuzumab E333H (antibody) | 
64.1 fold | trastuzumab S239D/A330Y/I332E/K326E (antibody) | 
28 fold | trastuzumab S239D/A330Y/I332E/V240I (antibody) | 
0.56 fold | trastuzumab N276Y (antibody) | 
0.87 fold | trastuzumab N276E (antibody) | 
17.7 fold | trastuzumab S239D/A330Y/I332E/V264T (antibody) | 
0.78 fold | trastuzumab E333T (antibody) | 
0.9 fold | trastuzumab Y278E (antibody) | 
1.11 fold | trastuzumab F275W (antibody) | 
0.92 fold | trastuzumab P230A/E233D (antibody) | 
1.41 fold | trastuzumab K274R (antibody) | 
1.06 fold | trastuzumab K274Y (antibody) | 

More lines, now with the values behind:

Substance | FcγRIIIa Fold [1] | further results
alemtuzumab V264I/I332E (antibody) |  | ADCC EC50 (DELFIA EuTDA, DoHH-2 target cells) [2]: 4 ng/mL; Kd [3]: 17 nM
trastuzumab P230A/E233D/I332E (antibody) | 1.87 fold | 
trastuzumab K274E (antibody) | 6.11 fold | 
trastuzumab V302I (antibody) | 1.01 fold | 
trastuzumab N276R (antibody) | 0.66 fold | 
trastuzumab T335D (antibody) | 2.79 fold | 
trastuzumab S324Y (antibody) | 0.98 fold | 
trastuzumab K326T (antibody) | 1.88 fold | 
trastuzumab V273I (antibody) | 0.79 fold | 
alemtuzumab S298A/E333A/K334A (antibody) |  | Kd [3]: 39 nM
trastuzumab E283R (antibody) | 0.67 fold | 
trastuzumab S324R (antibody) | 0.71 fold | 
trastuzumab E272Y (antibody) | 8.7 fold | 
trastuzumab S239D/A330Y/I332E/L234I (antibody) | 22.4 fold | 
trastuzumab P230A (antibody) | 1.09 fold | 
trastuzumab S239D/A330Y/I332E/L235D (antibody) | 7.04 fold | 

Substance | FcγRIIIa Fold [1] | further results
alemtuzumab V264I (antibody) |  | Kd [3]: 64 nM
trastuzumab V323I (antibody) | 0.83 fold | 
trastuzumab L234I/L235D (antibody) | 0.07 fold | 
trastuzumab T335Y (antibody) | 1.56 fold | 
alemtuzumab I332E (antibody) |  | Kd [3]: 31 nM
alemtuzumab A298H (antibody) | 0.27 fold | 
trastuzumab N276S (antibody) | 0.41 fold | 
WT alemtuzumab (antibody) |  | Kd [3]: 68 nM
trastuzumab E318R (antibody) | 1.06 fold | 
trastuzumab S239D/I332E/A330I (antibody) | 59.1 fold | 
alemtuzumab S298A (antibody) |  | Kd [3]: 52 nM
trastuzumab Y278W (antibody) | 0.41 fold | 
trastuzumab S324V (antibody) | 1.17 fold | 
trastuzumab E233D (antibody) | 0.85 fold | 
trastuzumab K274L (antibody) | 1.09 fold | 
alemtuzumab S239D/I332E (antibody) |  | ADCC EC50 (DELFIA EuTDA, DoHH-2 target cells) [2]: 3 ng/mL
